Test results as given in paper PMC7497679, “Structure-based design, synthesis, and evaluation of the biological activity of novel phosphoroorganic small molecule IAP antagonists” (Investigational New Drugs, 2020).
Square brackets hold non-standard residues; d marks the D form. 5(6)‑Fam = 5(6)-carboxyfluorescein; Dpm = not defined here

Target: T1, X-linked inhibitor of apoptosis protein (XIAP) BIR3 domain (human)
T1 construct: Neither the catalogue number, the construct limits nor the tags of the Sino Biological protein are stated; also called XIAP BIR3 protein; source: bought: Sino Biological, Beijing, China
Experiment: fluorescence polarisation; direct binding: two-fold serial dilutions of XIAP BIR3 domain (2.5 µM to 0.0763 nM) incubated 30 min with probe 4 (2 nM); r.t.; phosphate buffer pH 7.5 with γ-globulin 100 µg/mL and NaN3 0.02%; one site - total binding model
Details: both partners purified

B1: fluorescent probe H2N-Ala-Val-Pro-Dpm-Ala-Lys(5(6)-Fam)-Lys-NH2 (4) (peptide)
chain: H-AVP[Dpm]AK(5(6)‑Fam)K-NH2
modifications: reading uncertain; also: printed as H2N-Ala-Val-Pro-Dpm-Ala-Lys(5(6)-Fam)-Lys-NH2
Kd: 49.9 ± 5.37 nM
